This is an account of results in doi:10.1101/2020.10.08.20209114 (medRxiv, 2020).

In the experiment the target is SARS-CoV-2 RBD protein (SARS-CoV-2 (Wuhan-Hu-1, NC_045512), UniProt P0DTC2). The experiment is described as follows: BLI.

B1: monoclonal antibody 4L12 (antibody, V domains shown)
VH: EVQLVESGGGLVQPGGSLRLSCAASGITVSSNYMNWVRQAPGRGLEWVSLLYSGGSTYYADSVKGRFTISRDNSKNTLYLQMNSLRAEDTAVYYCARDLITYGMDVWGQGTTVTVSS
VL: AIQLTQSPSSLSASVGDRVTITCRASQGISSYLAWYQQKPGKAPKLLIYAASTLQSGVPSRFSGSGSGTDFTLTISSLQPEDFATYYCQQLNSYPPLTFGGGTKVEIK
A word on the Kd: it is the free concentration of one partner at which half of the binding sites on the other are occupied at equilibrium, for simple one-to-one binding. A high value points to a looser complex. B1 returned a Kd of 1.49 ± 0.06 nM.

B2: monoclonal antibody 7F3 (antibody, V domains shown)
VH: EVQLVESGGGLVKPGRSLRLSCTASGFTFGDYAMSWFRQAPGKGLEWVGFIRSKAYGGTTEYAASVKGRFTISRDDSKSIAYLQMNSLKTEDTAVYYCTRDRYARYDILTGLSPAGADYFYYAMDVWGQGTTVTVSS
VL: EIVLTQSPATLSLSPGERATLSCRASQSVSSYLAWYQQKPGQAPRLLIYDASNRATGIPARFSGSGSGTDFTLTISSLEPEDFAVYYCQQRSNWPQYTFGQGTKLEIK
The molecule B2 returned a Kd of 0.69 ± 0.03 nM.
